Reference: PMC4045628 (CellBio, 2014)

Columns and labels:
[1] = molecular target: T1, HA-tagged wild-type PKC iota (UniProt P41743 1-596); experiment: co-IP
T1 sequence (looked up): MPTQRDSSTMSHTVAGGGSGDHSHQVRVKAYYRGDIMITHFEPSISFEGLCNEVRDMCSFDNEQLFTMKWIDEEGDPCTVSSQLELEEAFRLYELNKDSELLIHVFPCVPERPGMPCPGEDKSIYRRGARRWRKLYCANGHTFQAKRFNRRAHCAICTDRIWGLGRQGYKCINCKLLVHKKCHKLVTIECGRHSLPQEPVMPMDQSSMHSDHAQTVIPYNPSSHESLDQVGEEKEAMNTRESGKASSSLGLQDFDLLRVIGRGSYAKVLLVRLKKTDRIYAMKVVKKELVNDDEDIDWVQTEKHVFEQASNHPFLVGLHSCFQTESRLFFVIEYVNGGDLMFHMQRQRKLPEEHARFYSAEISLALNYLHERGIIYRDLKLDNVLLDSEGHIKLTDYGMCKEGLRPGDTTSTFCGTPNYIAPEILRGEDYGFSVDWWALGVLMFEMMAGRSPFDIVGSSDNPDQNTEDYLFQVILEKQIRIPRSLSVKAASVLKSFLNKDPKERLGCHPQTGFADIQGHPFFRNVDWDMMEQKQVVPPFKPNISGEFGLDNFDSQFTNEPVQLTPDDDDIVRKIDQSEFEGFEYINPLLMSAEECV

[2] = molecular target: HA-tagged kinase-inactive PKC iota (UniProt P41743); experiment: co-IP

fold co-immunoprecipitated relative to PAR-3 [1]: ~10 fold | fold co-immunoprecipitated relative to PAR-3 [2]: 10 fold
B1: PAR-6B (natural protein, rat (endogenous in PC12), UniProt D4A2F2 1-372, looked up)
chain: MNRGHRHGVSSGCLGTMEVKSKFGAEFRRFSLERSKPGKFEEFYGLLQHVHKIPNVDVLVGYADIHGDLLPINNDDNYHKAVSTANPLLRVFIQKKEEADYSAFGTDTLIRKKNVLSNVLRPDNHRKKPHIVISMPQDFRPVSSIIDVDILPETHRRVRLYKYGTEKPLGFYIRDGSSVRVTPHGLEKVPGIFISRLVPGGLAQSTGLLAVNDEVLEVNGIEVSGKSLDQVTDMMIANSRNLIITVRPANQRNNVVRNSRTSGSSGQSTDNSLLGYPQQAGASLEPEDQDSDEDDIIIEGSGEPQQIPKATPEALSLESLTQIELSFESGQNGFSPLQDTSLVAVPSSLDTESESRAPDQKLLEEDGTIITL
